The target of the assay is Cer-PLN-AFA and YFP-PLN-AFA: canine phospholamban AFA mutant fused at its N-terminus with mCerulean or enhanced YFP (canine) (UniProt P61012). Description: FRET or BRET; in-cell binding assay, acceptor sensitization FRET in living AAV-293 cells co-transfected with Cer-PLN-AFA and YFP-PLN-AFA (1:5); FRET against relative protein concentration cell by cell, hyperbolic fit; apparent KD1 of the PLN-PLN oligomer; with or without 1 uM 50-mer ssDNA. (In general: In BRET a luciferase serves as donor, and the signal depends on an acceptor being close.)

Our source for the increase in PLN oligomerization with 50-mer ssDNA against no ssDNA values is PMC4543939.

Sequence of Cer-PLN-AFA and YFP-PLN-AFA: canine phospholamban AFA mutant fused at its N-terminus with mCerulean or enhanced YFP (P61012 whole entry, change not shown, the tested form may be a part): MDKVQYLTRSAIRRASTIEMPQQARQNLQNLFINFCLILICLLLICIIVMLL

As to “Cer-PLN-AFA and YFP-PLN-AFA: canine phospholamban AFA mutant fused at its N-terminus with mCerulean or enhanced YFP (from UniProt P61012 1-52) (natural protein)”, the increase in PLN oligomerization with 50-mer ssDNA against no ssDNA came to 20%.
